These results are taken from patent publication US20200190159A1.

Experiment [1] deals with recombinant tetranectin (TN) (human) (UniProt P05452). Nature of the experiment: SPR (BIAcore), TN immobilized on CM5 chip, HMGB1 as analyte at various concentrations; apparent Kd. (In general: Surface plasmon resonance follows binding to a sensor surface in real time, without labels.)
The target is the same in experiment [2]. Nature of the experiment: BIAcore SPR; recombinant TN immobilized on the sensor chip, HMGB1 as analyte at 31, 62, 125, 250, 500 and 1000 nM.

Chain of recombinant tetranectin (TN) (human) (P05452 22-202): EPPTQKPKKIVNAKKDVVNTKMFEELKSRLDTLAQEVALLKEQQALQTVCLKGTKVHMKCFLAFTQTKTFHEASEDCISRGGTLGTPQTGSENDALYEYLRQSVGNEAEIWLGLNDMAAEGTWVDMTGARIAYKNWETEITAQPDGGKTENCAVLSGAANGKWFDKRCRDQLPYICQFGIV

With “high mobility group box-1 (HMGB1) protein”, the Kd was determined as 570 nM in experiment [1] and 520 nM in experiment [2].
